Ki data for four substances are collected here from patent publication US20110178027A1.

The target of this test is PC4 (UniProt Q6UW60). The experiment in a line: enzyme inhibition.
PC4, sequence (Q6UW60 114-708): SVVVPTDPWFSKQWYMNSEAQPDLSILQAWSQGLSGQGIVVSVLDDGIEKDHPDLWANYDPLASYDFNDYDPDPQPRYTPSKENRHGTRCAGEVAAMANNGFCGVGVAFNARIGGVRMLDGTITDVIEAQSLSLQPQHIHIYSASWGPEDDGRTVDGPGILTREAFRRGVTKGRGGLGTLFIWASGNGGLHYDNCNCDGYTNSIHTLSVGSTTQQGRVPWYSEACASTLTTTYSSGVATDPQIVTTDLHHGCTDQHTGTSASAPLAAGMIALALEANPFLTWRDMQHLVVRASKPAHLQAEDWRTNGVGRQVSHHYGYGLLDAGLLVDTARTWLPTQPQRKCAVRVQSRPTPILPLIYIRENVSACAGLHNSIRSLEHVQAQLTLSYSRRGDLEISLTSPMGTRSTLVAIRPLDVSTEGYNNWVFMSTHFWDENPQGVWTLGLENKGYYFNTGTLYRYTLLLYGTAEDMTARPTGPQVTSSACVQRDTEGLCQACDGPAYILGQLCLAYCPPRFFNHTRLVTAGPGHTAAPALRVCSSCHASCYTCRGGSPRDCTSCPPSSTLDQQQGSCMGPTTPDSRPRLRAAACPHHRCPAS
As for LLLRVKR-NH2, the Ki was found to be 730 nM.
To LLRVKR-NH2 belongs 330 nM; to LRVKR-NH2, 630 nM.
For RVKR-NH2, the Ki was 20800 nM.
